Experimental data reported in US20200338203A1 (Bicycle, published 2020).
Numbered stars: 1 amine (or outer) side, 2 acyl side, 3 side chain; on linkers, the order of the positions; unused ones are H or OH. Bridge positions count the residues as written; N and C are the ends. Square brackets hold non-standard residues; d marks the D form. Primed or numbered codes have the meaning given here. Ends that are not written are not given here. K(Fl)″ = lysine labelled with carboxyfluorescein; K(Fl) = Lys carrying 5(6)-carboxyfluorescein; 1Nal = N[C@@H](Cc1cccc2ccccc12)C(=O)O; TBMB = c1c(C[*:1])cc(C[*:3])cc1C[*:2]; Gly(cPent) = N[C@H](C(=O)O)C1CCCC1; hArg = N=C(N)NCCCC[C@H](N)C(=O)O; Tle = CC(C)(C)[C@H](N)C(=O)O; AF488 = AlexaFluor488 label; Aib = CC(C)(N)C(=O)O; βAla = NCCC(=O)O; Sar = CNCC(=O)O

T1: rat EphB1 (Rat, UniProt P09759 18-540)
T1 construct: extracellular domain; also called EphB1 (Ecto), Rat
T1 sequence (looked up): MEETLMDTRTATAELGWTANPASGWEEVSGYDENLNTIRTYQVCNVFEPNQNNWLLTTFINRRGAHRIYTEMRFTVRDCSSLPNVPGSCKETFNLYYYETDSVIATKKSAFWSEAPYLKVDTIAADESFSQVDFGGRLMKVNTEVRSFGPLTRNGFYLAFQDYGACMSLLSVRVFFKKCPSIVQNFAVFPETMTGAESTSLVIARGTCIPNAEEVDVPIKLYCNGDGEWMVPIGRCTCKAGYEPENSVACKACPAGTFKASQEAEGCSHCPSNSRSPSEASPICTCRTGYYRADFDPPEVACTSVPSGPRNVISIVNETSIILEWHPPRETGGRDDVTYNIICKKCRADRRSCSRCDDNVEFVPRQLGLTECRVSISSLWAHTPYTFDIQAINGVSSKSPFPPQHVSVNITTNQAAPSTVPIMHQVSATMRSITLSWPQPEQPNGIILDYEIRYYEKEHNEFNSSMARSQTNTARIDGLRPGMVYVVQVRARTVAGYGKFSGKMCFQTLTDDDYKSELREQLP

T2: Human EphA1 (Human, UniProt P21709 26-547)
T2 construct: extracellular domain; also called EphA1 (Ecto), Human
T2 sequence (looked up): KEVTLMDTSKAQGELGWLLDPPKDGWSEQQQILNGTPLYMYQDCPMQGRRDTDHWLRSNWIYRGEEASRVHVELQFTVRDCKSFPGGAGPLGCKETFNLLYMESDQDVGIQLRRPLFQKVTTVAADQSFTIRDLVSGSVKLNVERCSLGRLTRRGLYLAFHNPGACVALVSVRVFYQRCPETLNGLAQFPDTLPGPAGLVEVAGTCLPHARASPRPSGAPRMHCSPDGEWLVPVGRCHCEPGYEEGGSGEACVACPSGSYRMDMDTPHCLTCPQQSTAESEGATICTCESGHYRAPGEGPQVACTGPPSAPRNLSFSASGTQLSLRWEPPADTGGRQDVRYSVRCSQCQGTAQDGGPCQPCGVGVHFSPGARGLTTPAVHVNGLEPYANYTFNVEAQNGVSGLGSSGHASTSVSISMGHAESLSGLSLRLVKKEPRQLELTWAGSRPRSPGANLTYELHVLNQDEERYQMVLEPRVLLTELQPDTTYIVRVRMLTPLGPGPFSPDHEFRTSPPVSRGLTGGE

B1: Compound 12 (peptide)
peptide: ACPWGPAWCPVNRPGCA
modifications: N-terminal Fl-G-Sar5 before the entry (5(6)-carboxyfluorescein, Gly, five sarcosines); three Cys cyclised on TBMB
notes: bicyclic peptide, fluorescent

Molecular target: T3, Human EphA2 (Human, UniProt P29317 24-537)
T3 construct: extracellular domain; also called EphA2 (Ecto), Human
Experiment: FP competition; competitor: fluorescent Compound 18
Experimental: Peptides without a fluorescent tag were tested in competition with a peptide with a fluorescent tag and a known Kd (Table 2). Peptides were diluted to an appropriate concentration in assay buffer as described in the direct binding assay with a maximum of 5% DMSO, then serially diluted 1 in 2. Five μL of diluted peptide was added to the plate followed by 10 μL of human or mouse EphA2 (Table 1) at a fixed concentration which was dependent on the fluorescent peptide used (Table 2), then 10 μL fluorescent peptide added. Measurements were conducted as for the direct binding assay, however the gain was determined prior to the first measurement.

T3 sequence (P29317 24-537): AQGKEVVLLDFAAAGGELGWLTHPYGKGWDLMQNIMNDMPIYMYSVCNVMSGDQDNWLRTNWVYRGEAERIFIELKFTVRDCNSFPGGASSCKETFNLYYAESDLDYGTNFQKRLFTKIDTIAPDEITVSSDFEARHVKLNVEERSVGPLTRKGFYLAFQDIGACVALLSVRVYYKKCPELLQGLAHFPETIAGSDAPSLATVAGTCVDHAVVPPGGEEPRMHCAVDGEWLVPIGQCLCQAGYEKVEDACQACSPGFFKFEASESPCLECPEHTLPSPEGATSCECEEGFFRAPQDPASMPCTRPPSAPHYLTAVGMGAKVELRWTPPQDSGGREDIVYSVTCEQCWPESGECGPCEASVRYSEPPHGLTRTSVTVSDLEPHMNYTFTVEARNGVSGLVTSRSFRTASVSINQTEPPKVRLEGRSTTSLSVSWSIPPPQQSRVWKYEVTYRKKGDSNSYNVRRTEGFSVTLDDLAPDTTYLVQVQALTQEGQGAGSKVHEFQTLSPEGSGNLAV

Binder | Ki
ADVHCPWGPFWCPVN[dA]PGCA (linker 5-12-19 via TBMB, bicyclic peptide) [Compound 156] | 14.9 nM
Ac-[Sar][Sar]A[dD]VTCPWGPAWCPVNRPGC (linker 7-14-21 via TBMB, bicyclic peptide) [Compound 173] | 6.69 nM
ADVHCPWGPFWCPV[dA]RPGCA (linker 5-12-19 via TBMB, bicyclic peptide) [Compound 155] | 2 nM
[Sar][Sar]ACPWAPFWCPVNRPGC (linker 4-11-18 via TBMB, bicyclic peptide) [Compound 288] | > 1000 nM
[Sar][Sar]ACPWGPFWCAVNRPGC (linker 4-11-18 via TBMB, bicyclic peptide) [Compound 291] | > 1000 nM

Molecular target: T4, Human EphA2 (Ecto) (Human, UniProt P29317 24-537)
T4 construct: extracellular domain
Experiment: FP direct binding

T4 sequence (P29317 24-537): as above

Binder | Kd
{AF488-βAla}-[Sar][Sar][Sar][Sar][Sar][Sar][Sar][Sar][Sar][Sar]H[dD]VPC[Aib][1Nal]G[Aib]F[1Nal]CP[Tle]N[hArg]P[dD]C (linker 15-22-29 via TBMB) [Compound 140] | 2.05 nM
{AF488-βAla}-[Sar][Sar][Sar][Sar][Sar][Sar][Sar][Sar][Sar][Sar]H[dD][Gly(cPent)]PC[Aib][1Nal]G[Aib]F[1Nal]CP[Tle]NR[Aib][dD]C (linker 15-22-29 via TBMB) [Compound 146] | 2.19 nM

Molecular target: T5, Mouse EphA2 (Ecto) (Mouse, UniProt Q03145 26-538)
T5 construct: extracellular domain; not shown: Fc fusion or C-terminal polyHis
Experiment: FP direct binding

T5 sequence (Q03145 26-538): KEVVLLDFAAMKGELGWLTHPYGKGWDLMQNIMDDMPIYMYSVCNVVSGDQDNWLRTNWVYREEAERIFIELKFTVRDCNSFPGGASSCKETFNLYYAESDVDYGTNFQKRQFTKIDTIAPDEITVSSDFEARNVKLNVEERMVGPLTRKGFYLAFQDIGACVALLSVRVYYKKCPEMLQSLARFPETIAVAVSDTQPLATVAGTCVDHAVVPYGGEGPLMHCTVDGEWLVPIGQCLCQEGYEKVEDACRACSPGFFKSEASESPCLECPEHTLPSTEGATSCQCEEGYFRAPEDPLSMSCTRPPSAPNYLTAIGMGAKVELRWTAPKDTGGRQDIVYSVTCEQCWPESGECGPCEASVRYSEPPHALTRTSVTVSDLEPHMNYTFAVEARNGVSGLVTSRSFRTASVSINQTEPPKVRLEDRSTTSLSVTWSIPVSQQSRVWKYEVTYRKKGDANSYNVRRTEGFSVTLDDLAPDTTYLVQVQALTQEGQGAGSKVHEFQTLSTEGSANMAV

Binder | Kd
{AF488-βAla}-[Sar][Sar][Sar][Sar][Sar][Sar][Sar][Sar][Sar][Sar]H[dD]VPC[Aib][1Nal]G[Aib]F[1Nal]CP[Tle]N[hArg]P[dD]C (linker 15-22-29 via TBMB) [Compound 140] | 4.55 nM

Molecular target: T4, Human EphA2 (Ecto)
Experiment: FP competition; competitor Compound 18

Binder | Ki
Ac-[Sar][Sar]H[dD]VPCP[1Nal]G[Aib]F[1Nal]CP[Tle]NR[Aib]GC (linker 7-14-21 via TBMB) [Compound 262] | 0.71 nM

Molecular target: Human & mouse EphA3 (Human & mouse) (UniProt P29320)
Experiment: FP direct binding, selectivity

Human & mouse EphA3 (Human & mouse), sequence (P29320 21-541): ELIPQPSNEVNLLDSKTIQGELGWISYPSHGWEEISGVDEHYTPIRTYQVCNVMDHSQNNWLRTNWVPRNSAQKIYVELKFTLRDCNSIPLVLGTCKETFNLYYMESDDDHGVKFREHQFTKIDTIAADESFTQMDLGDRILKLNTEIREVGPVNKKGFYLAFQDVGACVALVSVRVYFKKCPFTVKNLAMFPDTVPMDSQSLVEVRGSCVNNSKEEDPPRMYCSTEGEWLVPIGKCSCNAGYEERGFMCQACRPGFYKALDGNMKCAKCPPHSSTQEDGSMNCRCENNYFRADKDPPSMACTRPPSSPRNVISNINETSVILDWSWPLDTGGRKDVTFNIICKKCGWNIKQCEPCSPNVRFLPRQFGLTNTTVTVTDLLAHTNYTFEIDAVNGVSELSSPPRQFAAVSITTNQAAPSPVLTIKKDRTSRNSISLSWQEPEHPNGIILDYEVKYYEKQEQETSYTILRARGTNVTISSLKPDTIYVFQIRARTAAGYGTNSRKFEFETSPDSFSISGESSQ

Binder | Kd
{AF488-βAla}-[Sar][Sar][Sar][Sar][Sar][Sar][Sar][Sar][Sar][Sar]H[dD]VPC[Aib][1Nal]G[Aib]F[1Nal]CP[Tle]N[hArg]P[dD]C (linker 15-22-29 via TBMB) [Compound 140] | 3690 nM
{AF488-βAla}-[Sar][Sar][Sar][Sar][Sar][Sar][Sar][Sar][Sar][Sar]H[dD][Gly(cPent)]PC[Aib][1Nal]G[Aib]F[1Nal]CP[Tle]NR[Aib][dD]C (linker 15-22-29 via TBMB) [Compound 146] | 7190 nM

Molecular target: dog EphA2 (Dog)
Experiment: FP direct binding, selectivity

Binder | Kd
{AF488-βAla}-[Sar][Sar][Sar][Sar][Sar][Sar][Sar][Sar][Sar][Sar]H[dD]VPC[Aib][1Nal]G[Aib]F[1Nal]CP[Tle]N[hArg]P[dD]C (linker 15-22-29 via TBMB) [Compound 140] | 8.7 nM

Molecular target: T1, rat EphB1
Experiment: FP direct binding, selectivity
Experimental: (§1) The gain used for analysis was determined for each tracer at the end of the 60 minutes where there was no protein in the well. Data was analysed using Systat Sigmaplot version 12.0. mP values were fit to a user defined quadratic equation to generate a Kd value: f=ymin+(ymax−ymin)/Lig*((x+Lig+Kd)/2-sqrt((((x+Lig+Kd)/2)\hat{ }2)−(Lig*x))). “Lig” was a defined value of the concentration of tracer used.

Binder | Kd
ACPWGPFWCPVNRPGCA (N-terminal Fl-G-Sar5 before the entry; three Cys cyclised on TBMB, bicyclic peptide, fluorescent) [Compound 66] | 2270 nM

Molecular target: T6, mouse EphA2 (Mouse, UniProt Q03145 26-538)
T6 construct: extracellular domain; C-terminal polyHis; also called EphA2 (Ecto), Mouse
Experiment: FP direct binding, selectivity
Experimental: as §1

T6 sequence (Q03145 26-538): as the sequence (Q03145 26-538) above

Binder | Kd
{AF488-βAla}-[Sar][Sar][Sar][Sar][Sar][Sar][Sar][Sar][Sar][Sar]H[dD]VPC[Aib][1Nal]G[Aib]F[1Nal]CP[Tle]N[hArg]P[dD]C (linker 15-22-29 via TBMB) [Compound 140] | 4.55 nM
B1 | 55.5 nM
ACLVNDDCFYMGLCA[Sar][Sar][Sar][Sar][Sar][Sar]-{K(Fl)″} (linker 2-8-14 via TBMB, bicyclic peptide, fluorescent) [Compound 23] | 386 nM

Molecular target: rat EphA2 (Rat, UniProt D3ZBN3 27-205)
Experiment: FP direct binding, selectivity
Experimental: as §1

Binder | Kd
{AF488-βAla}-[Sar][Sar][Sar][Sar][Sar][Sar][Sar][Sar][Sar][Sar]H[dD]VPC[Aib][1Nal]G[Aib]F[1Nal]CP[Tle]N[hArg]P[dD]C (linker 15-22-29 via TBMB) [Compound 140] | 1.57 nM

Molecular target: T2, Human EphA1
Experiment: FP direct binding, selectivity
Experimental: as §1

Binder | Kd
ACMNDWLCSLGWTCA[Sar][Sar][Sar][Sar][Sar][Sar]-{K(Fl)} (linker 2-8-14 via TBMB) [Compound 1] | 1640 nM
ACPWGPFWCPVNRPGCA (N-terminal Fl-G-Sar5 before the entry; three Cys cyclised on TBMB, bicyclic peptide, fluorescent) [Compound 66] | 1180 nM

Molecular target: T4, Human EphA2 (Ecto)
Experiment: FP competition; competitor Compound 18
Remark: another data set of the same source

Binder | Ki
Ac-[Sar][Sar]A[dD][Gly(cPent)]VTCPWGPFWCPVNRPGC (linker 8-15-22 via TBMB) [Compound 163] | 1.33 nM
Ac-[Sar][Sar]A[dD]VTCPWGPFWCPVNRPGC (linker 7-14-21 via TBMB) [Compound 158] | 2.05 nM
Ac-[Sar][Sar]H[dD]VPCPWGPFWCPVNRPGC (linker 7-14-21 via TBMB) [Compound 225] | 1 nM

Molecular target: T5, Mouse EphA2 (Ecto)
Experiment: FP competition; competitor Compound 18

Binder | Ki
Ac-[Sar][Sar]A[dD][Gly(cPent)]VTCPWGPFWCPVNRPGC (linker 8-15-22 via TBMB) [Compound 163] | 1.74 nM
Ac-[Sar][Sar]H[dD]VPCP[1Nal]G[Aib]F[1Nal]CP[Tle]NR[Aib]GC (linker 7-14-21 via TBMB) [Compound 262] | 0.72 nM
Ac-[Sar][Sar]A[dD]VTCPWGPFWCPVNRPGC (linker 7-14-21 via TBMB) [Compound 158] | 2.2 nM
Ac-[Sar][Sar]H[dD]VPCPWGPFWCPVNRPGC (linker 7-14-21 via TBMB) [Compound 225] | 2.08 nM
